Results: article PMC10657180

Assays:
[1] = target: neddylated CUL1-RBX1 with the FBXW7-SKP1 substrate receptor (human) (UniProt Q13616)
[2] = target: neddylated CUL2-RBX1 in complex with the KLHDC2-ELONGIN B/C substrate receptor (human) (UniProt Q13617)
[3] = target: neddylated CUL2-RBX1 in complex with the VHL-ELONGIN B/C substrate receptor (human) (UniProt Q13617)

Sequence of ARIH1 (Q9Y4X5 whole entry): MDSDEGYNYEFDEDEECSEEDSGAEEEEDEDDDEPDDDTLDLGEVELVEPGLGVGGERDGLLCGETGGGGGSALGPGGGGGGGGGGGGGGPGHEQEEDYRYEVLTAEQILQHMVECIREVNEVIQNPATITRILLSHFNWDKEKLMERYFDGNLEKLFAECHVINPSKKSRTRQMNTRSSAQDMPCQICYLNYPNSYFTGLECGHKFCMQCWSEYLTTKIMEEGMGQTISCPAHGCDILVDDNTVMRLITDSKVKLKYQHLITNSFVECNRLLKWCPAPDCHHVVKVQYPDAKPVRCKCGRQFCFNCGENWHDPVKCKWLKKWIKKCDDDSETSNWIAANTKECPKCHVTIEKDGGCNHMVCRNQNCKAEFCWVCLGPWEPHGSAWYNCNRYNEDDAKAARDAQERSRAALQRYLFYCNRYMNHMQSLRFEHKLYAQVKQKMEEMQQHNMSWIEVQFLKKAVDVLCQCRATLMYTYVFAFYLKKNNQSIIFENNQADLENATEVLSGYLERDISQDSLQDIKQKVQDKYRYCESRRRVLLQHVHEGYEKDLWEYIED

Row | Substance | Km of ARIH1 for the CRL-substrate complex (single-encounter ubiquitylation, ARIH1 titrated, 10 s, Michaelis-Menten fit); peptide on the CRL: KR Lys 387 cycE [1] [µM] | Km of ARIH1 for the CRL-substrate complex (single-encounter ubiquitylation, ARIH1 titrated, 10 s, Michaelis-Menten fit); peptide on the CRL: KR Ser 387 cycE [1] [µM] | Km of ARIH1 for the CRL-substrate complex (single-encounter ubiquitylation, ARIH1 titrated, 10 s, Michaelis-Menten fit); peptide on the CRL: Lys only cycE [1] [µM] | Km of ARIH1 for the CRL-substrate complex (single-encounter ubiquitylation without cold competitor peptide, ARIH1 titrated, 10 s, Michaelis-Menten fit); peptide on the CRL: Arg47 Arg48 SelK [2] [µM] | Km of ARIH1 for the CRL-substrate complex (single-encounter ubiquitylation without cold competitor peptide, ARIH1 titrated, 10 s, Michaelis-Menten fit); peptide on the CRL: Lys47 Arg48 SelK [2] [µM] | Km of ARIH1 for the CRL-substrate complex (single-encounter ubiquitylation, ARIH1 titrated, 10 s, Michaelis-Menten fit); peptide on the CRL: NSer Hif1α [3] [µM] | Km of ARIH1 for the CRL-substrate complex (single-encounter ubiquitylation, ARIH1 titrated, 10 s, Michaelis-Menten fit); peptide on the CRL: WT Hif1α [3] [µM]
1 | A397D/K398I/A399V ARIH1 (from UniProt Q9Y4X5 1-557) (enzyme) | 1.12 | 1.19 | 0.544 |  |  |  | 
2 | ARIH1 (from UniProt Q9Y4X5 1-557) (enzyme) |  |  |  | 0.391 | 0.268 | 0.66 | 0.403
3 | K342A/E343A ARIH1 (from UniProt Q9Y4X5 1-557) (enzyme) | 1.56 | 0.461 | 1.22 |  |  |  | 
4 | N358A ARIH1 (from UniProt Q9Y4X5 1-557) (enzyme) | 0.874 | 1.04 | 0.98 |  |  |  | 
